Measurements: patent US20190161551A1 (Regeneron, published 2019)

How the values were obtained:
[1] = target: T1, human TrkB extracellular domain expressed with a C-terminal mouse IgG2a Fc tag (human); experiment: BLI Octet, captured hTrkB.mFc, 300 nM mAb (hNT-4 run)
T1 construct: also called hTrkB-mFc; hTrkB.mFc
Description: (§1) Blocking of anti-human TrkB or anti-mouse TrkB antibodies from binding to TrkB by BDNF or NT-4 was evaluated using a real-time bio-layer interferometry (BLI) based Octet HTX instrument. The entire study was performed in 10 mM HEPES pH 7.4, 300 mM NaCl, 3 mM EDTA, 1 mg/mL BSA, 0.02% NaN3 and 0.05% v/v Surfactant Tween-20 (HBS-EBT running buffer) at 25° C. All the samples were dispensed in a 384 tilted well plate and the plate was placed on the orbital shaker with the shake speed of 1000 rpm. hTrkB.mFc was captured on anti-mFc (AMC) Octet sensors while hTrkB.hFc or mTrkB.hFc were captured on anti-hFc (AHC) Octet sensors by dipping in wells containing 10 μg/mL of TrkB reagents for 2 minutes. hTrkB.mFc or hTrkB.hFc captured Octet biosensors were saturated by dipping in wells containing 20 nM of BDNF, hNT-4, or mNT-4 for 2 minutes followed by dipping Octet biosensors in wells containing 300 nM of different TrkB mAbs for 4 minutes. Binding of TrkB mAbs to the complex of TrkB and BDNF, hNT-4, or mNT-4 was determined using Scrubber 2.0c analysis software.

[2] = target: T2, human TrkB extracellular domain (aa Cys32-His430) expressed with the Fc portion of human IgG1 at the … (human); experiment: competition ELISA, 500 pM hTrkB-hFc pre-mixed with mAb, plate-coated hBDNF
T2 construct: also called hTrkB-hFc; hTrkB.hFc
Description: Experiments were carried out using the following procedure. Human BDNF or NT-4 were separately coated at a concentration of 0.5 μg/mL or 2 μg/mL, respectively, in PBS on a 96-well microtiter plate overnight at 4° C. […] Blocking solution and dilution buffer contained 5% (w/v) solution of BSA in PBS for assay with BDNF coat, or 0.5% (w/v) solution of BSA in PBS for assay with NT-4 coat. On separate microtiter plates, a constant amount of 500 pM of hTrkB-hFc protein was added to serial dilutions of antibodies with final concentrations ranging from 1.7 pM to 100 nM, and solutions with no antibody present. (The constant concentration of hTrkB-hFc for antibody inhibition assays was selected from the approximate midway point within the linear portion of individual binding curves of hTrkB-hFc to plate-coated hBDNF or hNT-4). After one hour incubation at room temperature, antibody-protein complexes with 500 pM constant concentration of hTrkB-hFc protein were transferred to microtiter plates coated with hBDNF or hNT-4. After one hour incubation at room temperature, the wells were washed, and plate-bound hTrkB-hFc was detected with anti-human Fcγ fragment specific goat polyclonal antibodies conjugated with horseradish peroxidase (JacksonImmunoResearch). The plate was then developed using TMB substrate solution (BD Biosciences) according to manufacturer's recommendation and absorbance at 450 nm was measured on a Victor plate reader (PerkinElmer™).
The ability of anti-TrkB antibodies to block TrkB binding to BDNF or NT-4 was assessed using two competition sandwich ELISAs. Human TrkB-hFc binding to hBDNF or hNT-4 coated on 96-well microtiter plates, in the presence of serially diluted antibodies or no antibody controls, were detected with HRP-conjugated anti-human Fcγ fragment specific goat polyclonal antibodies. IC₅₀ values were calculated and used as the potency indicator of antibody blocking hTrkB-hFc binding to hBDNF or hNT-4. In addition, the maximum blockade of 500 pM hTrkB-hFc with each antibody at the highest tested concentration was calculated and compared.

[3] = target: T1, human TrkB extracellular domain …; experiment: BLI Octet, captured hTrkB.mFc saturated with BDNF, 300 nM mAb
Description: as §1

mouse TrkB.hFc = target: T3, mouse TrkB.hFc (mouse); experiment: BLI Octet, captured mTrkB.hFc, 300 nM mAb (NT-4 run)
T3 construct: also called mTrkB.hFc; mTrkB-hFc
Description: Blocking of BDNF or NT-4 from binding to TrkB by anti-human TrkB or anti-mouse TrkB antibodies was evaluated using a real-time bio-layer interferometry (BLI) based Octet HTX instrument. The entire study was performed in 10 mM HEPES pH 7.4, 300 mM NaCl, 3 mM EDTA, 1 mg/mL BSA, 0.02% NaN3 and 0.05% v/v Surfactant Tween-20 (HBS-EBT running buffer) at 25° C. All the samples were dispensed in a 384 tilted well plate and the plate was placed on the orbital shaker with the shake speed of 1000 rpm. hTrkB.mFc was captured on anti-mFc (AMC) Octet sensors while hTrkB.hFc or mTrkB.hFc were captured on anti-hFc (AHC) Octet sensors by dipping in wells containing 10 μg/mL of TrkB reagents for 2 minutes. hTrkB.mFc or hTrkB.hFc captured Octet biosensors were saturated by dipping in wells containing 300 nM of different TrkB mAbs for 4 minutes followed by dipping Octet biosensors in wells containing 20 nM of BDNF, hNT-4, or mNT-4 for 2 minutes. Binding of BDNF, hNT-4, or mNT-4 to the complex of TrkB and different TrkB mAbs was determined using Scrubber 2.0c analysis software.

T3 sequence (chain, as listed by the source limits assumed): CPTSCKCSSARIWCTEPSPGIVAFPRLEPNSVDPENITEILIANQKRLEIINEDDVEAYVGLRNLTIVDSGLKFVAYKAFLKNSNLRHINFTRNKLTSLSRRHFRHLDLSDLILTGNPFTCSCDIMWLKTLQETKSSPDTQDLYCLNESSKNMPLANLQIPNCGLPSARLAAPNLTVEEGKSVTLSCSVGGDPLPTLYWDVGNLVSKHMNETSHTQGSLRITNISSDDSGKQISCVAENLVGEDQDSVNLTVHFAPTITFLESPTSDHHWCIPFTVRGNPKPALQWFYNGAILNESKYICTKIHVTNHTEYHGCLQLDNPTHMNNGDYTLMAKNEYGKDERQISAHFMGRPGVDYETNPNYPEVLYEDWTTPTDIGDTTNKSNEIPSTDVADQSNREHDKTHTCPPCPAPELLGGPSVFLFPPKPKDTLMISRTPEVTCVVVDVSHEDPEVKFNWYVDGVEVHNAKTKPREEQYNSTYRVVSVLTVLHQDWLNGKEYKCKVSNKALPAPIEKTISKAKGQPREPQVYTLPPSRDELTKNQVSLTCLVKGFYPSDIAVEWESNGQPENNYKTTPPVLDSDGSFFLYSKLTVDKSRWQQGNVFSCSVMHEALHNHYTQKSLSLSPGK
T2 sequence (chain, as listed by the source limits assumed): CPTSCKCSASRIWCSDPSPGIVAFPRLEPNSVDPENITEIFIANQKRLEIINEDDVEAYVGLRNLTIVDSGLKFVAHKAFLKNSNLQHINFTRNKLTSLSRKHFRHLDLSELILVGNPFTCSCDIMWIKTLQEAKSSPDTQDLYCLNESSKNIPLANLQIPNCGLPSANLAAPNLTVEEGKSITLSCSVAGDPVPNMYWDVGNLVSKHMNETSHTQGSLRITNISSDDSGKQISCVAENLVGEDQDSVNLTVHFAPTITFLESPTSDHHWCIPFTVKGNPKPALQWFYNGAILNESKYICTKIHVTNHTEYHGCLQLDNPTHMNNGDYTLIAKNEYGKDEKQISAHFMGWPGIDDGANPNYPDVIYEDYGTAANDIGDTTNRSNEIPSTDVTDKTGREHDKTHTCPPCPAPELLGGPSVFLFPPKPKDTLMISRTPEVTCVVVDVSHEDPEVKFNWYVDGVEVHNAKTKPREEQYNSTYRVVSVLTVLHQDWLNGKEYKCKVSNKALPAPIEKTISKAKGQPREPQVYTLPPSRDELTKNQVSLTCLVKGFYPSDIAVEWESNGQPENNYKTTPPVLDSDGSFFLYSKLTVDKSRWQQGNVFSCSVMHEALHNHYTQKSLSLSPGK
T1 sequence (chain, as listed by the source limits assumed): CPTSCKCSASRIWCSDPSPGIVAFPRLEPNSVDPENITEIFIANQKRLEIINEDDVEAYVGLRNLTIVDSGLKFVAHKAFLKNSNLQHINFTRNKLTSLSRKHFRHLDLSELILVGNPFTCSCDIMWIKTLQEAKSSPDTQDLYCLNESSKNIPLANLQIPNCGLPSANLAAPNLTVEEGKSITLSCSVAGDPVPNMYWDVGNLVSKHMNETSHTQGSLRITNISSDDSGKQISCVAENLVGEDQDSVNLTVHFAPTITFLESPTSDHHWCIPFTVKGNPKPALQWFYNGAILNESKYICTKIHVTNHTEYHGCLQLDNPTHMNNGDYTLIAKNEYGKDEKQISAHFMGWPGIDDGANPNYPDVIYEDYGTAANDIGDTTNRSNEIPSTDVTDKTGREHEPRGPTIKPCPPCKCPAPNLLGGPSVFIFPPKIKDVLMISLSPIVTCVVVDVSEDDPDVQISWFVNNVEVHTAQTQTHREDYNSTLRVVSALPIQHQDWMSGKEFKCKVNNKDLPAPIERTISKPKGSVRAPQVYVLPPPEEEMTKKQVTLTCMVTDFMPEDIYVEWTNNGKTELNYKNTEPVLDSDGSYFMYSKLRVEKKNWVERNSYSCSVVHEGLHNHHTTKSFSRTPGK

B1: H4H9780P (antibody, human IgG4 S228P, kappa, V domains shown)
VH: QVQLVESGGGVVQPGRSLRLSCAASGFSFSSFGMHWVRQAPGKGLEWVSVISYDGINTYYTDSVKGRFTISRDNSKNTLYLQMNGLRAEDTALYYCVQGSIGTVFEYWGQGTLVTVSS
VL: DIQMTQSPSSLSASVGDRVTITCRASQGISNYLAWYQQKPGKVPKLLIYAASTLQSGVPSRFGGSGSGTDFTLTISSLQPEDVATYYCQKYTSAPFTFGPGTKVDIKR
notes: Fully human anti-human TrkB agonist antibody, human IgG4 Fc; also called H4H9780P-L1
[1]
  mAb Binding (nm): 0.18 nm
[2]
  % Blockade with 100 nM antibody: 93%
  IC50: 0.15 nM
[3]
  antibody Binding (nm): 0.2 nm

B2: H1M8037C (antibody, mouse IgG1, kappa, V domains shown)
VH: QVQLVQSGAEVKKPGASVKVSCKASGYTFTNYDIIWVRQAPGQGLEWMGYINPYNDGTKYNEKFKGRVTMTRDTSTSTVYMELSSLRSEDTAVYYCARLLKYRRFRYYAIDYWGQGTTVTVSS
VL: DIQMTQSPSSLSASVGDRVTITCRTSENVYSNLAWYQQKPGKAPKLLIYAASNLQSGVPSRFSGSGSGTDYTFTISSLQPEDIATYYCQHFWGSPFTFGQGTKLEIKR
notes: captured by anti-mFc in SPR; also called Comparator; comparator anti-TrkB monoclonal antibody
Mouse TrkB.hFc
  mAb Binding (nm): 0.4 nm
[2]
  % Blockade with 100 nM antibody: 97%
  IC50: 0.17 nM

B3: H4H9814P (antibody, human IgG4 S228P, kappa, V domains shown)
VH: EVQLVESGGGLVQPGGSLKLSCTASGFTFSGSVIHWVRQASGKGLEWIGRIRNKANSYATAYGASVTGRFTISRDDSKNTAYLQMNSLKTEDTAVYYCTFPGVVGRGGFDYWGQGTLVTVSS
VL: DIVMTQSPDSLAVSLGEGATINCMSSQSVLFSSNNKNYLAWYQQKPGQPPKLLFYWASTRESGVPDRFGGSGSGTDFSLTINSLQTEDVAVYYCLQYYSIPWTFGQGTKVEIKR
notes: Fully human anti-human TrkB agonist antibody, human IgG4 Fc; also called H4H9814P-L1
[1]
  mAb Binding (nm): 0.18 nm
[2]
  % Blockade with 100 nM antibody: 6%
[3]
  antibody Binding (nm): 0.22 nm

B4: M2aM14173N (antibody, mouse IgG2a, kappa, V domains shown)
VH: NVSLVESGGGSVKPGGSLQLSCAASGFTFSSSAMSWIRQTPEMRLEWVATISDRGSYTYYPDSVEGRFTISRDNAKNILYLQMSHLMSEDTAMYYCARGKGEKAYYTAFFAYWGQGSLVTVSA
VL: DIQMTQSPASLSASVGETVTITCRASENIYSYLAWYQQKPGKSPHLLVHNAETLAEGVPSRFSGSGSGPQFSLKINSLQPGDSGTYYCQHHYSSPWTFGGGTKLEIKR
notes: Anti-mouse TrkB antibody from hybridoma, mouse IgG2a Fc; also called surrogate anti-mouse TrkB antibody
Mouse TrkB.hFc
  mAb Binding (nm): 0.413 nm

B5: M2aM14179N (antibody, mouse IgG2a, kappa, V domains shown)
VH: EVQLQQSGPELVKPGASVKISCKASGYTLTDYYMNWVKQSHGKSLEWIGDINPNNGGTSYNQKFKGKATLTVDKSSSTAYMELRSLTSEDSAVYYCARGAYYSNYFDYWGQGTTLTVSS
VL: DIVMSQSPSSLAVSAGEKVTMSCKSSQSLLNSRTRKNYLAWYQQKPGQSPKLLIYWASTRESGVPDRFTGSGSGTDFTLTISSVQAEDLAVYYCKQSYILFTFGSGTQLEIKR
notes: as for B4
Mouse TrkB.hFc
  mAb Binding (nm): 0.41 nm

B6: H4H9816P2 (antibody, human IgG4 S228P, kappa, V domains shown)
VH: EVQLVESGGGLVQPGGSLTLSCAASGFNFRDYEMIWVRQTPGKGLEWISYISNSGYTIYYADSVKGRFTISRDNARNSIYLQVNSLRAEDTAVYYCSRRTTMIRGIRAYYYYGLDVWGQGTTVTVSS
VL: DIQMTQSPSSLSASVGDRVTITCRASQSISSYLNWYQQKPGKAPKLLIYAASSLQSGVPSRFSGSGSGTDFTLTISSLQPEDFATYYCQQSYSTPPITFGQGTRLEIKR
notes: Fully human anti-human TrkB agonist antibody, human IgG4 Fc; also called H4H9816P-L1
[1]
  mAb Binding (nm): 0.18 nm
[2]
  % Blockade with 100 nM antibody: -56%
[3]
  antibody Binding (nm): 0.26 nm
